Source: PMC11055835, “Small animal PET imaging with the ^68Ga-labeled pH (low) insertion peptide-like peptide YJL-4 in a triple-negative breast cancer mouse model” (EJNMMI Radiopharmacy and Chemistry, 2024)
Where two headings read alike, the source gives them in different places. Peptide text beside a SMILES is read from it. * marks the point of attachment. X1 = O=C(O)CN1CCN(CC(=O)O)CC(Cc2ccc(NC(=S)*)cc2)N(CC(=O)O)CC1; NOTA = O=C(O)CN1CCN(CC(=O)O)CCN(CC(=O)*)CC1; Ahx = NCCCCCC(=O)O

What was measured:
[1] = Serum stability in mouse serum; format: in vitro ADME
Description: (§1) Two hundred microliters of each ^68Ga-labeled peptide (18.5 MBq) was mixed with 1.0 mL of fresh human serum (or mouse serum) and incubated at 37 °C, and the radiochemical purity was detected at 30, 60, 120, and 240 min after mixing.

[2] = system: MDA-MB-231 tumor-bearing nude mice; assay: Small animal PET imaging; format: in vivo, BALB/c nude mice; conditions: 2 and 4 h after injection, approx. 7.4 MBq/200 μL via tail vein, static 10-min PET, n = 3
Description: Human breast cancer cells (MDA-MB-231 cells from the Cell Bank of the Chinese Academy of Sciences) were cultured in high-glucose DMEM supplemented with 10% fetal bovine serum and 1% double antibiotic mixture (penicillin‒streptomycin mixture) at 37 °C in 5% CO2. Twenty-four four- to five-week-old female specific pathogen-free (SPF) BALB/c nude mice (Hangzhou Ziyuan Experimental Animal Technology Co., Ltd., China, license number: SCXK(Zhe) 2019–0004) were used to establish the MDA-MB-231 tumor model by subcutaneously inoculating 0.1 mL of cell suspension (50 µL of PBS + 50 µL of Matrigel) containing 1 × 10^6 MDA-MB-231 cells at the base of the right forelimb of each mouse. The animal studies were approved by the ethics committee of Qingdao University, and the management of the animals adhered to the animal ethics standards.
Six tumor-bearing nude mice were selected for imaging when the tumor diameter reached 0.8–1.0 cm. Mice were randomly divided into two groups: a YJL-4 group and a control group, with 3 mice per group; each group had two time points. Each tumor-bearing nude mouse was injected with approximately 7.4 MBq/200 μL of ^68Ga-YJL-4 or ^68Ga-kVar7 through the tail vein, and the mice were anesthetized with 2% isoflurane at 2 and 4 h after injection and imaged using static 10-min PET and moderate-resolution whole-body CT. […]

[3] = Serum stability in human serum; format: in vitro ADME
Description: as §1

Serum protein binding = format: in vitro ADME, mouse
Description: The resulting mixture was vortexed for 1 min and centrifuged (13,000 rpm) for 5 min. The supernatant was transferred to a 1.7 ml Eppendorf tube and then further centrifuged at 13,000 rpm for 2 min. The supernatant and sediment were collected separately, and the radioactivity was measured with a gamma counter to determine the serum protein binding of the radiotracer.

In vivo biodistribution = assay: In vivo biodistribution; set-up: species or system BALB/c nude mice; conditions: female, BALB/c nude, mouse, iv, 1.85 MBq/200 uL, total radioactivity
Source text: Twenty-four four- to five-week-old female specific pathogen-free (SPF) BALB/c nude mice (Hangzhou Ziyuan Experimental Animal Technology Co., Ltd., China, license number: […] The animal studies were approved by the ethics committee of Qingdao University, and the management of the animals adhered to the animal ethics standards. Eighteen tumor-bearing nude mice were selected for in vivo biodistribution experiments when the tumor diameter reached 0.8–1.0 cm. Mice were randomly divided into two groups: a YJL-4 group and a control group with 9 mice per group; each group had three time points. […] The mice were humanely sacrificed 1 h, 2 h, or 4 h after injection. The brain, heart, lungs, liver, kidneys, stomach, small intestine, blood, muscles, bones, and tumor were collected and weighed, and the radioactivity was measured. The biodistribution results are expressed as the percent of the injected dose per gram of tissue (% ID/g).

For CC(C)C[C@H](NC(=O)[C@H](CC(=O)O)NC(=O)[C@H](CC(C)C)NC(=O)[C@H](CC(C)C)NC(=O)[C@H](CC(C)C)NC(=O)[C@@H](NC(=O)[C@H](CC(=O)O)NC(=O)[C@@H](NC(=O)[C@@H]1CCCN1C(=O)[C@H](Cc1ccccc1)NC(=O)[C@H](CC(C)C)NC(=O)[C@H](CC(C)C)NC(=O)[C@H](CC(=O)O)NC(=O)[C@H](C)NC(=O)[C@H](Cc1ccc(O)cc1)NC(=O)[C@H](CCCNC(=N)N)NC(=O)[C@H](C)NC(=O)[C@H](Cc1c[nH]c2ccccc12)NC(=O)[C@@H]1CCCN1C(=O)[C@H](CC(N)=O)NC(=O)[C@H](CCC(N)=O)NC(=O)[C@H](CC(=O)O)NC(=O)[C@H](CC(=O)O)NC(=O)[C@H](CS)NC(=O)[C@H](C)NC(=O)CCCCCNC(=S)Nc1ccc(CC2CN(CC(=O)O)CCN(CC(=O)O)CCN2CC(=O)O)cc1)[C@@H](C)O)[C@@H](C)O)C(N)=O (stereo partly drawn) [^68Ga-YJL-4, metal not drawn] ({X1-Ahx}-ACDDQNPWARYADLLFPTDTLLLDL-NH2), the “Radiochemical purity after incubation in mouse serum” value [1] was roughly 95%, the “Visualization of tumors by PET” value [2] was “clearly visualized” and the “Radiochemical purity after incubation in human serum” value [3] was roughly 95%. It also gave a fraction unbound at 30 min (Serum protein binding; mouse, serum) of 0.678, a fraction unbound at 120 min (Serum protein binding; mouse, serum) of 0.685 and a tissue uptake at 1 h (In vivo biodistribution; Biodistribution in tumors) of 5.94 ± 1.27 %ID/g. The tissue uptake at 2 h (In vivo biodistribution; Biodistribution in tumors) was 6.72 ± 1.69 %ID/g, the tissue uptake at 4 h (In vivo biodistribution; Biodistribution in tumors) was 4.54 ± 0.58 %ID/g and the tissue uptake at 1 h (In vivo biodistribution; Distribution in the blood) was 19.6 ± 3.92 %ID/g. The tissue uptake at 2 h (In vivo biodistribution; Distribution in the blood) was 8.23 ± 3.47 %ID/g, the tissue uptake at 4 h (In vivo biodistribution; Distribution in the blood) was 3.38 ± 1.91 %ID/g and the tissue uptake at 1 h (In vivo biodistribution; Distribution in the liver) was 20.5 ± 3.64 %ID/g. It also gave a tissue uptake at 2 h (In vivo biodistribution; Distribution in the liver) of 14.5 ± 3.98 %ID/g and a tissue uptake at 4 h (In vivo biodistribution; Distribution in the liver) of 10.2 ± 2.77 %ID/g.

In the case of CC(C)C[C@H](NC(=O)[C@H](CCCCN)NC(=O)[C@H](CC(C)C)NC(=O)[C@H](CC(C)C)NC(=O)[C@H](CC(C)C)NC(=O)[C@@H](NC(=O)[C@H](CCCCN)NC(=O)[C@@H](NC(=O)[C@@H]1CCCN1C(=O)[C@H](Cc1ccccc1)NC(=O)[C@H](CC(C)C)NC(=O)[C@H](Cc1c[nH]c2ccccc12)NC(=O)[C@H](CCCCN)NC(=O)[C@H](CC(C)C)NC(=O)[C@H](Cc1ccc(O)cc1)NC(=O)[C@H](CCCNC(=N)N)NC(=O)[C@H](C)NC(=O)[C@H](Cc1c[nH]c2ccccc12)NC(=O)[C@@H]1CCCN1C(=O)[C@H](CC(N)=O)NC(=O)[C@H](CCC(N)=O)NC(=O)[C@H](CCC(=O)O)NC(=O)[C@H](CCC(=O)O)NC(=O)[C@H](CS)NC(=O)[C@H](C)NC(=O)CN1CCN(CC(=O)O)CCN(CC(=O)O)CC1)[C@@H](C)O)[C@@H](C)O)C(N)=O [^68Ga-kVar7, metal not drawn, reference compound] ({NOTA}-ACEEQNPWARYLKWLFPTKTLLLKL-NH2; N-terminus assumed), the “Radiochemical purity after incubation in mouse serum” value ([1]; 200 µL labeled peptide (18.5 MBq) in 1.0 mL mouse serum, 37 °C, 240 min) is reported as roughly 95%, the “Visualization of tumors by PET” value [2] is reported as “not visualized” and the “Radiochemical purity after incubation in human serum” value ([3]; 200 µL labeled peptide (18.5 MBq) in 1.0 mL fresh human serum, 37 °C, 240 min) is reported as roughly 95%. The fraction unbound at 30 min (Serum protein binding; mouse serum, 37 °C, 30 min, 0.37 MBq, acetonitrile precipitation, gamma counter, mean ± SD, read-out: Serum protein binding rate (converted)) was 0.723, the “Serum protein binding rate” value (Serum protein binding; mouse serum, 37 °C, 60 min, 0.37 MBq, acetonitrile precipitation, gamma counter, mean ± SD) was 27.89 ± 2.02% and the fraction unbound at 120 min (Serum protein binding; mouse serum, 37 °C, 120 min, 0.37 MBq, acetonitrile precipitation, gamma counter, mean ± SD, read-out: Serum protein binding rate (converted)) was 0.75. For the same compound, the “Serum protein binding rate” value (Serum protein binding; mouse serum, 37 °C, 240 min, 0.37 MBq, acetonitrile precipitation, gamma counter, mean ± SD) was 27.54 ± 0.86%, the tissue uptake at 1 h (In vivo biodistribution; 1 h after injection, 1.85 MBq/200 μL via tail vein, mean ± SD, n = 3, read-out: Distribution in the blood) was 20.6 ± 4.73 %ID/g and the tissue uptake at 1 h (In vivo biodistribution; 1 h after injection, 1.85 MBq/200 μL via tail vein, mean ± SD, n = 3, read-out: Distribution in the liver) was 21.3 ± 2.93 %ID/g. The tissue uptake at 2 h (In vivo biodistribution; 2 h after injection, 1.85 MBq/200 μL via tail vein, mean ± SD, n = 3, read-out: Distribution in the blood) was 9.88 ± 2.71 %ID/g, the tissue uptake at 2 h (In vivo biodistribution; 2 h after injection, 1.85 MBq/200 μL via tail vein, mean ± SD, n = 3, read-out: Distribution in the liver) was 14.8 ± 3.87 %ID/g and the tissue uptake at 4 h (In vivo biodistribution; 4 h after injection, 1.85 MBq/200 μL via tail vein, mean ± SD, n = 3, read-out: Distribution in the blood) was 3.17 ± 1.6 %ID/g. The tissue uptake at 4 h (In vivo biodistribution; 4 h after injection, 1.85 MBq/200 μL via tail vein, mean ± SD, n = 3, read-out: Distribution in the liver) was 11 ± 2.77 %ID/g.
